Assay results as given in patent US20230203170A1 (DRAGONBOAT BIOPHARMACEUTICAL SHANGHAI, published 2023).

T1: full-length mouse CSF-1R (RefSeq ID NP_001032948) expressed on HEK293F cells (mouse, UniProt P09581 20-977)
T1 construct: whole, on cells
T1 sequence (looked up): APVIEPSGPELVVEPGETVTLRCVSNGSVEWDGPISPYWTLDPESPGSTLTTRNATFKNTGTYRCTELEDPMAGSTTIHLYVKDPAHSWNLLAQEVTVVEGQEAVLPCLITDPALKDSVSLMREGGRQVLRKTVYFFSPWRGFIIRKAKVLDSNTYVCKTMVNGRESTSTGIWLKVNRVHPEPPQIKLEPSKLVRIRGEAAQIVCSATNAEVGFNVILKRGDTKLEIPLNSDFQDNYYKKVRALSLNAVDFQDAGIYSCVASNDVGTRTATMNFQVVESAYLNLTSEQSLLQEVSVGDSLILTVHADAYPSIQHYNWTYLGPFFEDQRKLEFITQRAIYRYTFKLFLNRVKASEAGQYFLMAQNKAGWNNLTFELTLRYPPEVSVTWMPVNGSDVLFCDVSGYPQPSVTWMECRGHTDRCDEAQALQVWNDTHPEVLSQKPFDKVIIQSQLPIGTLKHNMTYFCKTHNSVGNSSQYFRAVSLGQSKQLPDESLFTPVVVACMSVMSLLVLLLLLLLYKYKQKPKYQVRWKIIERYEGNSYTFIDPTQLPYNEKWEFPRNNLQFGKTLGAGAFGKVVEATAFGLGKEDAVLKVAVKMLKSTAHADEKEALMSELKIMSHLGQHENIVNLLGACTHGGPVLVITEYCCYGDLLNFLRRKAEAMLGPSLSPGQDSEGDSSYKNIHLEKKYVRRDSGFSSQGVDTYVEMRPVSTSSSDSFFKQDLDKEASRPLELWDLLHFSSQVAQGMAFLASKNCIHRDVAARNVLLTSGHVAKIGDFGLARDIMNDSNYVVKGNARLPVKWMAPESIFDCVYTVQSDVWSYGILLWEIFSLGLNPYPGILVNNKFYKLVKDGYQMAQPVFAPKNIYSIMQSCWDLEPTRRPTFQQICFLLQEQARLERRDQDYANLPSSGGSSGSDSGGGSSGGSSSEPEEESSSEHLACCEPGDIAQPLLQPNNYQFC

B1: TY21431 (antibody, human IgG4, V domains shown)
VH: EVQLVESGGGLVQPGGSLRLSCAASGFTFTDYAIHWVRQAPGKGLEWVSVISGYGSSTYYADSVKGRFTISRDNSKNTLYLQLNSLRAEDTAVYYCARGSYSSVYFDVWGQGTLVTVSS
VL: DIQLTQSPSSLSASVGDRVTITCKASQDVRTAVAWYQQKPGKAPKLLIYAASSLQSGVPSRFSGSGSGTDFTLTISSLQPEDFATYYCQQSYPIPFTFGQGTKVEIK
notes: Human IgG4 isotype with S241P mutation
B2: TY21430 (antibody, human IgG4, V domains shown)
VH: EVQLVESGGGLVQPGGSLRLSCAASGYSITSGHHWAWIRQAPGKGLEWVSSISGSGSTTYYADSVKGRFTISRDNSKNTLYLQLNSLRAEDTAVYYCARGSYYGAGSFDYWGQGTLVTVSS
VL: DIQLTQSPSSLSASVGDRVTITCRASQGITSALAWYQQKPGKAPKLLIYDASSLESGVPSRFSGSGSGTDFTLTISSLQPEDFATYYCQQYYPWPWTFGQGTKVEIK
notes: as for B1
B3: TY21432 (antibody, human IgG4, V domains shown)
VH: EVQLVESGGGLVQPGGSLRLSCAASGYTFSSYAIHWVRQAPGKGLEWVSVISGAGSSTYYADSVKGRFTISRDNSKNTLYLQLNSLRAEDTAVYYCARRTPAGNYFDYWGQGTLVTVSS
VL: DIQLTQSPSSLSASVGDRVTITCRASQGISRWLAWYQQKPGKAPKLLIYDASSLESGVPSRFSGSGSGTDFTLTISSLQPEDFATYYCEQYLEVPPTFGQGTKVEIK
notes: as for B1

Assays:
[1] = molecular target: full-length mouse CSF-1R (RefSeq ID NP_001032948) expressed on HEK293F cells (mouse) (UniProt P09581); assay: flow cytometry on HEK293F cells transiently expressing full-length mouse CSF-1R (IRES-EGFP vector), IgG at 100 nM, Alexa Fluor 647 anti-human Fc detection [Conti.]
[2] = molecular target: T1, full-length mouse CSF-1R (RefSeq ID …); assay: flow cytometry on transfected HEK293F cells
Description: (§1) The specificities of the antibodies were also assessed against human, monkey and mouse CSF-1R that are transiently expressed on the surface of HEK293F cells (FIG. 1). Briefly, HEK293F cells were transfected with a plasmid expressing full-length human, monkey (RefSeq ID XP_015307616) or mouse (RefSeq ID NP_001032948) CSF-1R from a bicistronic IRES vector. EGFP was used to identify the transfected cells. After 40 hrs, the transfected cells were harvested and then washed once with 1% PBSA buffer (1% (w/v) BSA in 1×PBS). Cells were then incubated with various IgGs (each at 100 nM) for 1 hr at room temperature, washed once with pre-chilled 1% PBSA buffer, and incubated with Alexa Fluor® 647 conjugated mouse anti-human Fc antibodies for 30 min on ice. The cells were washed once prior to analysis by flow cytometry (Beckman® CytoFlex).

[3] = molecular target: T2, human CSF1R-His (Acrobiosystem, CSR-H5228) (human, UniProt P07333 20-512, limits assumed); assay: SPR Biacore T200; IgG captured by anti-human Fc, CSF1R-His as analyte, 1:1 fit
T2 construct: Bought protein; The catalogue number is printed only for the SPR assay; also called human CSF-1R protein; not shown: His tag
Source text: The specific binding affinity and kinetics of antibodies against human CSF-1R protein were examined by surface plasmon resonance (SPR) analysis using a Biacore™ T200 instrument (GE, USA) according to the manufacturer’s guidelines. Anti-Human IgG (Fc) antibody (Sigma, I2136) was immobilized on CM5 chips according to the instructions of Amine Coupling kit (GE Biacore #BR-1000-50). The immobilized Anti-Human IgG (Fc) antibody was used to capture the antibodies. […] The running buffer used was 0.01 M HEPES, 0.15 M NaCl, 3 mM EDTA, 0.05% (v/v) surfactant P20, pH 7.4. Corresponding controls were conducted in each case using a blank flow cell with no protein captured for “background” subtraction. The association and dissociation curves were fitted to a 1:1 Langmuir binding model using Biacore T200 Evaluation Software (GE, USA) according to the manufacturer’s guidelines.

[4] = molecular target: full-length monkey CSF-1R (RefSeq ID XP_015307616) expressed on HEK293F cells (monkey, UniProt A0A2K5WG90 20-976); assay: flow cytometry on HEK293F cells transiently expressing full-length monkey CSF-1R (IRES-EGFP vector), IgG at 100 nM, Alexa Fluor 647 anti-human Fc detection [Conti.]
Description: as §1

[5] = molecular target: T1, full-length mouse CSF-1R (RefSeq ID …); assay: flow cytometry on HEK293F cells transiently expressing full-length mouse CSF-1R (IRES-EGFP vector), Alexa Fluor 647 anti-human Fc detection [Conti.]
Description: as §1

[6] = molecular target: T3, full-length human CSF-1R expressed on cells (human, UniProt P07333 20-972); assay: flow cytometry on HEK293F cells transiently expressing full-length human CSF-1R (IRES-EGFP vector), IgG at 100 nM, Alexa Fluor 647 anti-human Fc detection [Conti.]
T3 construct: whole, on cells
Description: as §1

Chain of full-length monkey CSF-1R (RefSeq ID XP_015307616) expressed on HEK293F cells (A0A2K5WG90 entry or part of it limits assumed, form in doubt): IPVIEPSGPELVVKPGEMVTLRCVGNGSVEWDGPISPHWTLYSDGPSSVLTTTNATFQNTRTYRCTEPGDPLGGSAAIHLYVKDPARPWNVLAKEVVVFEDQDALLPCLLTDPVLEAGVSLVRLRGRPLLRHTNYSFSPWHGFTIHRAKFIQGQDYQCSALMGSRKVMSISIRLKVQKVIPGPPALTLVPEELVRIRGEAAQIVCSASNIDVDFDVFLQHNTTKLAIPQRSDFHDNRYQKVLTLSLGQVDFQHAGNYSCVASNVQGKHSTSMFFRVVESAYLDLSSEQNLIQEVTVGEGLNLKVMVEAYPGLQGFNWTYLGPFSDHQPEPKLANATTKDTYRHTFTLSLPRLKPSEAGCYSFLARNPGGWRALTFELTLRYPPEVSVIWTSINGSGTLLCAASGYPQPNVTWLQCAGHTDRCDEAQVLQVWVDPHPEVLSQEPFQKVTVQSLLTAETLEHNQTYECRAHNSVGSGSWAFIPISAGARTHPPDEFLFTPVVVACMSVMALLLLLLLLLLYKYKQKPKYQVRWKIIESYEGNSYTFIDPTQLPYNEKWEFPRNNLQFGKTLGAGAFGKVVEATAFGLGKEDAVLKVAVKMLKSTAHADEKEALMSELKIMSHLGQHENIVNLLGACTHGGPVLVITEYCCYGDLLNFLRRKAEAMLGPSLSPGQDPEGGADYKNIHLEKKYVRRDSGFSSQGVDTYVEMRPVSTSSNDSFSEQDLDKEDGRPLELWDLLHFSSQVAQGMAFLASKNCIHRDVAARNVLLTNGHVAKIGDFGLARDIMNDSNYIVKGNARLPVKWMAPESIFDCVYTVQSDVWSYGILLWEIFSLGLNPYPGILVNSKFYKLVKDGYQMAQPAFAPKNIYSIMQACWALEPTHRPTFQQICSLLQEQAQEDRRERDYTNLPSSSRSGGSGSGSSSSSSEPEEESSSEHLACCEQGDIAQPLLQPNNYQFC

| Molecule | percent of cells in the upper right quadrant (APC Ab binding positive, FITC Ag display positive) [1] [%] | binding result [2] | Kd [3] [nM] | percent of cells in the upper right quadrant (APC Ab binding positive, FITC Ag display positive) [4] [%] | binding result [5] | percent of cells in the upper right quadrant (APC Ab binding positive, FITC Ag display positive) [6] [%] |
| --- | --- | --- | --- | --- | --- | --- |
| Isotype Ctrl (antibody) | 0.17 | – | – | – | – | – |
| B1 | – | no binding (tested: 100 nM) | 20.9 | – | – | – |
| B2 | – | – | 8.35 | 32.3 | no binding (tested: 100 nM) | 41.2 |
| B3 | – | – | 13.8 | 28.8 | no binding (tested: 100 nM) | 41.7 |
